Columns and labels:
Experiment in all cases: FXa generation assay
[1] = molecular target: Factor VIIIa (WT), thrombin-activated WT B-domainless FVIII
[2] = molecular target: Factor VIIIa D666S/S1787D swap variant (thrombin-activated B-domainless FVIII)
[3] = molecular target: Factor VIIIa T657Y/Y1792T swap variant (thrombin-activated B-domainless FVIII)

- Kd [1]: 0.92 nM
- Kd [2]: 1.73 nM
- Kd [3]: 1.45 nM
Substance: FIXaβ (from UniProt P00740 47-191; P00740 227-461) (enzyme)
